Measured values as given in the supplement of paper PMC11780869.

Test system: Bacillus subtilis
Assay: cleaved RNA product abundance (RNA/gDNA barcode ratio) relative to median wild-type variant (ratio to wild type); higher = more accumulation of the downstream cleavage product
Method in brief: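 Cleaved product abundance is expressed as the RNA:gDNA barcode ratio per construct, scaled to the median construct carrying the unmutated site. The constructs were barcoded, mutagenized RNase Y cleavage-site windows in truncated aprE or tetM reporter mRNAs integrated into the B. subtilis chromosome. Cultures grew in LB at 37°C from OD600 0.0003 to 0.3 before cleaved RNA was gel-selected and barcode-sequenced.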

[1] = experiment (reporter, strain, medium): exp 2b: truncated aprE reporter, strain BJT200, cleavage site: cggR-gapA (positions -7 to +36 mutated)
[2] = experiment (reporter, strain, medium): exp 4a: truncated aprE reporter, strain BJT201 with 2% xylose (RNase J1 expressed), cleavage site: cggR-gapA (positions -7 to +36 mutated)
[3] = experiment (reporter, strain, medium): exp 8a: truncated aprE reporter, strain BJT201 with 2% xylose (RNase J1 expressed), cleavage site: glnRA (positions -5 to +31 mutated)
[4] = experiment (reporter, strain, medium): exp 6: tetM reporter, strain 168, cleavage site: cggR-gapA (positions -7 to +36 mutated)

Sequence | cleaved RNA product abundance [1] | cleaved RNA product abundance [2] | cleaved RNA product abundance [3] | cleaved RNA product abundance [4]
ACAGACGAAGGAGCCGCAAAGAAGTTATTAAGAGATTAATAATCCCTCAATATAAATATCTCTCACTTATTTAAA | 0.116 | 0.115 |  | 
ACAGACGAAGGAGCCGCAAAGAAGTTATTAAGAGATGAATAATCCCTCAATATACATATCTCTCACTTATTTAAA | 0.102 | 0.136 |  | 
ACAGACGAAGGAGCCGCAAAGACGTTATTAAGGGATCAATAATCCCTCAATATAAATATCTCTCACTTATTTAAA |  | 0.743 |  | 
CGACATGTCCCGCTTCTTTCATTAATCCATTAGCAACTGATTTGCTATATACATTTACCTTTTAAGAGGAGGAAT |  |  | 0.89 | 
ACAGACGAAGGAGCCGCATAGAAGTTATTAAGGGATGAATAATCCCCCAATATAAATATCTCTCACTTATTTAAA | 0.247 | 0.319 |  | 
ACAGACGAAGGAGCCGCAAAAAAGTTATTATGGGATGAATAATCCCTCAATATAAATATCTCTCACTTATTTAAA | 0.323 | 0.334 |  | 
ACAGACGAAGGAGCCGCAAAGAAGTTATTAATGGATGAATAAGCCCTCAATATAAATATCTCTCACTTATTTAAA |  | 0.107 |  | 
ACAGACGAAGGAGCCGCAAAGAAGTTATTAAGGGATGAATAATCCCTCTACATAAATATCTCTCACTTATTTAAA |  | 0.441 |  | 
ACAGACGAAGGAGCCGCAAAGAAGTTATTAAGGGACGATTAATCCCTCAATATAAATATCTCTCACTTATTTAAA |  | 0.349 |  | 
ACAGACGAAGGAGCCGCAAAGAATTAATTAAGGGATGAATAATCCCTCAATATAAATATCTCTCACTTATTTAAA | 0.257 | 0.36 |  | 
CGACATGTCCCGCTTCTTTCATTAATCCGTTAGCAACAGTTTTGCTATATACATTTTCCTTTTAAGAGGAGGAAT |  |  | 0.423 | 
ACAGACGAAGGAGCCGCAAAGAAGTAATTAAGGGAAGAATAATCCCTCAATATAAATATCTCTCACTTATTTAAA | 0.117 | 0.263 |  | 
ACAGACGAAGGAGCCGCAAAGAAGTTATTAAGGGATGAATAATCCCTCACTATAAATATCTCTCACTTATTTAAA | 0.215 | 0.277 |  | 0.208
ACAGACGAAGGAGCCGCAAAGAACATATTAAGGGATGAATAATCCCTCAATATAAATATCTCTCACTTATTTAAA | 0.607 | 0.499 |  | 
ACAGACGAAGGAGCCGCAAAGAAGTTATTAACTGATGAATAATCCCTCAATATAAATATCTCTCACTTATTTAAA | 0.0892 | 0.118 |  | 
ACAGACGAAGGAGCCGCAAAGAAGTTATTAAGGGATGAATAATCCCTCAATATAAATATCTCTACTTATTTAAAG | 1.09 |  |  | 
CGACATGTCCCGCTTCTTTCATTAATCCGTTAGCAACTGTTTTGATATATACATATACCTTTTAAGAGGAGGAAT |  |  | 0.572 | 
ACAGACGAAGGAGCCGCAAAGAAGTTTTTAAGAGATGAATAATCCCTCAATATAAATATCTCTCACTTATTTAAA |  | 0.183 |  | 
ACAGACGAAGGAGCCGCAAAGAAGTTATTAAGTGATTAATAATCCCTCAATATAAATATCTCTCACTTATTTAAA | 0.112 | 0.0979 |  | 
ACAGACGAAGGAGCCGCTAAGAAGTTATTAATGGATGAATAATCCCTCAATATAAATATCTCTCACTTATTTAAA |  | 0.172 |  | 

Sequence | cleaved RNA product abundance [1] | cleaved RNA product abundance [2] | cleaved RNA product abundance [3] | cleaved RNA product abundance [4]
ACAGACGAAGGAGCCGCAAAGAAGTTATTAAGGGATGAATAATCTCTCAATATAAATATTTCTCACTTATTTAAA |  | 0.948 |  | 
ACAGACGAAGGAGCCGCAAAGAAGCTATTAAGGGATGAATAATCCCTCAGTATAAATATCTCTCACTTATTTAAA | 0.135 |  |  | 
ACAGACGAAGGAGCCGCAAGGAAGTTATTAAGGGATGAATAATCTCTCAATATAAATATCTCTCACTTATTTAAA |  | 0.86 |  | 
CGACATGTCCCGCTTCTTTCATTAATCCGTTAGCACCTGTTTTGCTATATACATTTACTTTTTAAGAGGAGGAAT |  |  | 0.499 | 
CGACATGTCCCGCTTCTTTCATTATTCCGTTAGCTACTGTTTTGCTATATACATTTACCTTTTAAGAGGAGGAAT |  |  | 0.764 | 
ACAGACGAAGGAGCCGCAAGGAAGTTATTAAGGGATGAATAATCCCTCAATATACATATCTCTCACTTATTTAAA |  | 0.774 |  | 
CGACATGTCCCGCTTCTTTCATTAATCCGTTAGCAACTGTTTTGCTATAAACTTTTACCTTTTAAGAGGAGGAAT |  |  | 0.318 | 
CGACATGTCCCGCTTCTTTCATTAATCCGTTAGCAACTATTTTGCTATATACATTTACTTTTTAAGAGGAGGAAT |  |  | 1.55 | 
ACAGACGAAGGAGCCGCAAAGAACTTATTAAGGGATGAATGATCCCTCAATATAAATATCTCTCACTTATTTAAA |  | 0.282 |  | 
CGACATGTCCCGCTTCTTTCATTAATCCCTTAGCAACTGTTTTCCTATATACATTTACCTTTTAAGAGGAGGAAT |  |  | 0.214 | 
ACAGACGAAGGAGCCGCAAATAAGTTATTAATGGATGAATAATCCCTCATTATAAATATCTCTCACTTATTTAAA |  | 0.135 |  | 
ACAGACGAAGGAGCCGCAAAGAAGTTATTAAGAGATGAATAATCCCTCAATATATATATCTCTCACTTATTTAAA | 0.129 | 0.14 |  | 
CGACATGTCCCGCTTCTTTCATTAATCCGTTACCATCTGTTTTGCTATATACATTTACCTTTTAAGAGGAGGAAT |  |  | 0.163 | 
ACAGACGAAGGAGCCGCAAAGTAGTTATTAAGGGATGAATAATCTCTCAATATAAATATCTCTCACTTATTTAAA |  | 0.802 |  | 
CGACATGTCCCGCTTCTTTCATTAATCAGTTAGCAACTGTTTTGCTATATATATTTACCTTTTAAGAGGAGGAAT |  |  | 0.759 | 
ACAGACGAAGGAGCCGCAAAGATGTTATTAAGGTATGAATAATCCCTCAATATAAATATCTCTCACTTATTTAAA |  | 0.161 |  | 
ACAGACGAAGGAGCCGCATAGAAGTTACTAAGGGATGAATAATCCCTCAATATAAATATCTCTCACTTATTTAAA | 0.24 | 0.221 |  | 
ACAGACGAAGGAGCCGCAAAGAAGTTATTAAAGGATGAATAATCCCTCAATAGAAATATCTCTCACTTATTTAAA | 0.111 | 0.107 |  | 
ACAGACGAAGGAGCCGCAAAAAAGTTATTCAGGGATGAATAATCCCTCAATATAAATATCTCTCACTTATTTAAA |  | 0.962 |  | 
ACAGACGAAGGAGCCGCAAAGAAGTTATTAAGGGATGAATAATCCATCAATATATATATCTCTCACTTATTTAAA | 0.19 | 0.191 |  | 

Sequence | cleaved RNA product abundance [1] | cleaved RNA product abundance [2] | cleaved RNA product abundance [3] | cleaved RNA product abundance [4]
ACAGACGAAGGAGCCGCAAAGAAGTTATTTAGGGATGAATAACCCCTCAATATAAATATCTCTCACTTATTTAAA |  | 0.288 |  | 
ACAGACGAAGGAGCCGCAAAGAAATTATTAAGAGATGAATAATCCCTCAAAATAAATATCTCTCACTTATTTAAA | 0.114 |  |  | 
ACAGACGAAGGAGCCGCAAAGAATTTATTAAGGGATGAATAATCCCTCAATATAAATAACTCTCACTTATTTAAA |  | 0.544 |  | 
ACAGACGAAGGAGCCGCAAAGAAGTTATTAAGGGATGAATAAAACCTCAATATAAATATCTCTCACTTATTTAAA | 0.119 | 0.125 |  | 
ACAGACGAAGGAGCCGCAAAGAAGTTATTAAGGGATAAATAATCCCTTAATATAAATATCTCTCACTTATTTAAA | 0.71 | 0.48 |  | 
ACAGACGAAGGAGCCGCAAAGAAGTTATTAAGAGATGAATAATCCATCAATATAAATATCTCTCACTTATTTAAA | 0.142 | 0.19 |  | 
ACAGACGAAGGAGCCGCAAAGAAGTTATTAATGGATGAATAATTCCTCAATATAAATATCTCTCACTTATTTAAA | 0.0864 | 0.12 |  | 
ACAGACGAAGGAGCCGCAAAGAAGCTATTAAGGTATGAATAATCCCTCAATATAAATATCTCTCACTTATTTAAA | 0.0903 | 0.0903 |  | 
ACAGACGAAGGAGCCGCAAATAAGTTATTAAGGGATGAATAATCCCTCCATATAAATATCTCTCACTTATTTAAA | 0.274 | 0.333 |  | 
ACAGACGAAGGAGCCGCAAAGAAGTTATTAAGGGAGGAATAATCCTTCAATATAAATATCTCTCACTTATTTAAA |  | 0.283 |  | 
ACAGACGAAGGAGCCGCAAAGAAGTTATTAAGGGATGAATAATCCCTCAAAAGAAATATCTCTCACTTATTTAAA |  | 0.0815 |  | 
ACAGACGAAGGAGCCGCAAAGAAGTTATTAAGCGATGAATAAACCCTCAATATAAATATCTCTCACTTATTTAAA |  | 0.0954 |  | 
ACAGACGAAGGAGCCGCAAAGTAGTTATTAAGGGATGAATAATCCCTCAATATAAATATCTCTCACTTATTTAAA | 0.953 | 0.98 |  | 1.09
CGACATGTCCCGCTTCTTTCATTAATCCGTTAGCAACTGTTCTGCTATATATATTTACCTTTTAAGAGGAGGAAT |  |  | 0.554 | 
ACAGACGAAGGAGCCGCAAAGATGTTATTAAGGGATGAATAATCCCTCTATATAAATATCTCTCACTTATTTAAA |  | 0.447 |  | 
ACAGACGAAGGAGCCGCAAAGAAGTTATTAAGGGGTGAAAAATCCCTCAATATAAATATCTCTCACTTATTTAAA |  | 0.504 |  | 
ACAGACGAAGGAGCCGCAAAGAAATTATTAAGGGATGAATTATCCCTCAATATAAATATCTCTCACTTATTTAAA | 0.539 | 0.711 |  | 
ACAGACGAAGGAGCCGCAAAGAAGTCATTAAGGGATGAAAAATCCCTCAATATAAATATCTCTCACTTATTTAAA | 0.173 | 0.2 |  | 
